# Reference: PMC10681739, “High-throughput data and modeling reveal insights into the mechanisms of cooperative DNA-binding by transcription factor proteins”
# T1: ETS1 x2 (Homo sapiens, UniProt P14921)
# T1 sequence: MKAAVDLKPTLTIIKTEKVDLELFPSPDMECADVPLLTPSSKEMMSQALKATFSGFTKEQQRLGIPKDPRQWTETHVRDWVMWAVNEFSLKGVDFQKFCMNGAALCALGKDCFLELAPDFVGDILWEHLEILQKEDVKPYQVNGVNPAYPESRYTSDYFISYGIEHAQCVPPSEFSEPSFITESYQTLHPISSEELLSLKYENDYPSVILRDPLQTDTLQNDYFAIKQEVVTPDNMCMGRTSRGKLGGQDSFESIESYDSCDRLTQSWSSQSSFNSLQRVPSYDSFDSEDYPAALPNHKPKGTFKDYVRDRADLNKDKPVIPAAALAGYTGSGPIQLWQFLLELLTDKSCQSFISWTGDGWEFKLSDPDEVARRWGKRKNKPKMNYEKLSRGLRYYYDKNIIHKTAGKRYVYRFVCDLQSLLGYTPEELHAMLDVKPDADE
# B1: Table S4 A row 761 (dsDNA)
# DNA 1: TTGCCGGATGAGGTTGGTTGTCTCTAATTTCCTCTC
# DNA 2: GAGAGGAAATTAGAGACAACCAACCTCATCCGGCAA
# B2: Table S4 A row 1809 (dsDNA)
# DNA 1: AGGGCAGGATGCCAAGATGAACTACATTTCCTGGCA
# DNA 2: TGCCAGGAAATGTAGTTCATCTTGGCATCCTGCCCT
# B3: Table S2 A row 465 (dsDNA)
# DNA 1: TGAGGGGCTCGCCGGGAAATGTGGTTTAGCGGCCCT
# DNA 2: AGGGCCGCTAAACCACATTTCCCGGCGAGCCCCTCA
# B4: Table S4 A row 1107 (dsDNA)
# DNA 1: ACGGCCACCAGGAGGAAACTTCCTCTGAATCTTCCA
# DNA 2: TGGAAGATTCAGAGGAAGTTTCCTCCTGGTGGCCGT
# B5: Table S4 A row 1968 (dsDNA)
# DNA 1: GTGATTGGCAGGATCCTGGTATCCGCTAACAGGTAC
# DNA 2: GTACCTGTTAGCGGATACCAGGATCCTGCCAATCAC
# B6: Table S4 A row 1346 (dsDNA)
# DNA 1: TTCCCAGGAAGCCCCAAAGCCCTGGCTTCCGCCCAA
# DNA 2: TTGGGCGGAAGCCAGGGCTTTGGGGCTTCCTGGGAA
# B7: Table S4 A row 1074 (dsDNA)
# DNA 1: CACGCACATCCCCAGTGAGTAACACTTCCTGAGGGC
# DNA 2: GCCCTCAGGAAGTGTTACTCACTGGGGATGTGCGTG
# B8: Table S2 A row 1288 (dsDNA)
# DNA 1: TCTCTATGGTTTCCGTTGGGTGTGTGGTTTTTTTGT
# DNA 2: ACAAAAAAACCACACACCCAACGGAAACCATAGAGA
# B9: Table S2 A row 1000 (dsDNA)
# DNA 1: CCCATTTCCTGCTCTCCAGAGTTAACCACTGAAGTC
# DNA 2: GACTTCAGTGGTTAACTCTGGAGAGCAGGAAATGGG
# B10: Table S4 A row 273 (dsDNA)
# DNA 1: TAATACAACTGGGGAAGTCACTTCCTTGCTGAGCTT
# DNA 2: AAGCTCAGCAAGGAAGTGACTTCCCCAGTTGTATTA
# B11: Table S4 A row 1584 (dsDNA)
# DNA 1: TGTGTCGGACAGGAACTCGGCTTCCTTTGTGCCTCT
# DNA 2: AGAGGCACAAAGGAAGCCGAGTTCCTGTCCGACACA
# B12: Table S4 A row 258 (dsDNA)
# DNA 1: GCTTATCACTGAAGGAAACAGGATGCTAAATGTACG
# DNA 2: CGTACATTTAGCATCCTGTTTCCTTCAGTGATAAGC
# B13: Table S2 A row 140 (dsDNA)
# DNA 1: AGTTACAGTAAAGGATGTGGTGAAACAGATGTTTAT
# DNA 2: ATAAACATCTGTTTCACCACATCCTTTACTGTAACT
# B14: Table S2 A row 378 (dsDNA)
# DNA 1: GAAAAAAATGAGCTTCCTTTAACCACAACTGTATTA
# DNA 2: TAATACAGTTGTGGTTAAAGGAAGCTCATTTTTTTC
# B15: Table S2 A row 1237 (dsDNA)
# DNA 1: AGCCTACATCCTGCACTGCTTAACCACAGCCCGCCT
# DNA 2: AGGCGGGCTGTGGTTAAGCAGTGCAGGATGTAGGCT
# B16: Table S2 A row 963 (dsDNA)
# DNA 1: GGGTCGCGGCCTTCCGGCGAACGCGGTTACCGTGGA
# DNA 2: TCCACGGTAACCGCGTTCGCCGGAAGGCCGCGACCC
# B17: Table S4 A row 2621 (dsDNA)
# DNA 1: TGGAGCCGGGGGAAGTGGGAGCATCCGCAGCCCCGC
# DNA 2: GCGGGGCTGCGGATGCTCCCACTTCCCCCGGCTCCA
# B18: Table S4 A row 1993 (dsDNA)
# DNA 1: ATCACGGGGCCCATCCGGGGAGGAAGGCGGCACAGG
# DNA 2: CCTGTGCCGCCTTCCTCCCCGGATGGGCCCCGTGAT
# B19: Table S4 A row 2210 (dsDNA)
# DNA 1: AAAACACCCGGATGGAGTCGCACTTCCCGAGTCTCG
# DNA 2: CGAGACTCGGGAAGTGCGACTCCATCCGGGTGTTTT
# B20: Table S2 A row 712 (dsDNA)
# DNA 1: GACTTTTACGGAAATAGCAGTCCAAAACCGCGTCTA
# DNA 2: TAGACGCGGTTTTGGACTGCTATTTCCGTAAAAGTC
# B21: Table S4 A row 2446 (dsDNA)
# DNA 1: TCCCACCGTCCCATCCGCTACTTCCCGAAAACTCAA
# DNA 2: TTGAGTTTTCGGGAAGTAGCGGATGGGACGGTGGGA
# B22: Table S2 A row 1444 (dsDNA)
# DNA 1: TGCTTAGCGGGAAGTGCTTACACCACAAAACAAGAC
# DNA 2: GTCTTGTTTTGTGGTGTAAGCACTTCCCGCTAAGCA
# B23: Table S2 A row 672 (dsDNA)
# DNA 1: ATGTGCCCAAAGGATGTCACCGCAAAGATCATAGGA
# DNA 2: TCCTATGATCTTTGCGGTGACATCCTTTGGGCACAT
# B24: Table S4 A row 1655 (dsDNA)
# DNA 1: CCGCGGGGTCCGGAACTGCTTGTTCCGGCAGTGGAA
# DNA 2: TTCCACTGCCGGAACAAGCAGTTCCGGACCCCGCGG
# B25: Table S4 A row 1105 (dsDNA)
# DNA 1: GCCAGAGGGGCGGAAGAACCCGGAAGACCCAGGCAG
# DNA 2: CTGCCTGGGTCTTCCGGGTTCTTCCGCCCCTCTGGC
# B26: Table S4 A row 493 (dsDNA)
# DNA 1: TGGTAAACGGAAGAGACCTCTCCTGTTCCGGGAGTA
# DNA 2: TACTCCCGGAACAGGAGAGGTCTCTTCCGTTTACCA
# B27: Table S4 A row 1336 (dsDNA)
# DNA 1: AGGTCGGAAGCGCTTCTACTGCAGCTCCGGAAAGGG
# DNA 2: CCCTTTCCGGAGCTGCAGTAGAAGCGCTTCCGACCT
# B28: Table S4 A row 1783 (dsDNA)
# DNA 1: ACCCCGGATGGCACCGCGAGTCCCCGTTTCCGACAA
# DNA 2: TTGTCGGAAACGGGGACTCGCGGTGCCATCCGGGGT
# B29: Table S4 A row 1360 (dsDNA)
# DNA 1: CAGAACGCACAGGAAGAGAGAGGAAACCAAGTGGGT
# DNA 2: ACCCACTTGGTTTCCTCTCTCTTCCTGTGCGTTCTG
# B30: Table S2 A row 1399 (dsDNA)
# DNA 1: TCGCACCGGAACCCCTTGGCGGATTATGTGGGTTCC
# DNA 2: GGAACCCACATAATCCGCCAAGGGGTTCCGGTGCGA
# B31: Table S4 A row 1719 (dsDNA)
# DNA 1: GGACCTACAGGAAGACTGACTAGCTTCCTTCGAGCC
# DNA 2: GGCTCGAAGGAAGCTAGTCAGTCTTCCTGTAGGTCC
# B32: Table S4 A row 1545 (dsDNA)
# DNA 1: CTTCGAAGAGATTTCCTCCCGGAAAGGCCGAGCATT
# DNA 2: AATGCTCGGCCTTTCCGGGAGGAAATCTCTTCGAAG
# Assays:
# ETS1 x2 = biological target: T1, ETS1 x2; assay: gcPBM; 10 nM ETS1; conditions: tags: N-terminal GST (pDEST15), kept (PMC6008103); chain copies: 2; label: surface-attached array probe
# ETS1:RUNX1 = ETS1:RUNX1 (Homo sapiens, UniProt P14921;Q01196 full;full); assay: gcPBM; 1 nM ETS1 + 25 nM RUNX1, anti-ETS1 signal, normalised; conditions: tags: N-terminal GST (pDEST15), kept (PMC6008103); copies: 1;1; label: surface-attached array probe
# Chain of ETS1:RUNX1 (Q01196 whole entry, one chain of several): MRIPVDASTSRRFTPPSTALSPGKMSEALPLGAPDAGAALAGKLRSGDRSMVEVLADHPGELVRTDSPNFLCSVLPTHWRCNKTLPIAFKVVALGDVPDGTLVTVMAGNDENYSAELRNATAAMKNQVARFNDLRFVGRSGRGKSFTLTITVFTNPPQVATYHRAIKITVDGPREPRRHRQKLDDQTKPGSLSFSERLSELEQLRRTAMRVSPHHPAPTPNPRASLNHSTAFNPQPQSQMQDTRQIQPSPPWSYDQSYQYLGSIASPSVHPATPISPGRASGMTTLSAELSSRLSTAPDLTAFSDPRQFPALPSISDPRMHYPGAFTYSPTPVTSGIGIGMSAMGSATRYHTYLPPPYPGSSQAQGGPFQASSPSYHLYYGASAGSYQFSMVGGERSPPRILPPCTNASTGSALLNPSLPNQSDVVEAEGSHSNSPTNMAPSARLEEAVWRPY
Binder,binding signal (ETS1 x2),binding signal (ETS1:RUNX1)
B1,"764 PBM fluorescence, median of replicate spots",–
B2,"1160 PBM fluorescence, median of replicate spots",–
B3,–,"1230 PBM fluorescence, median of replicate spots"
B4,"872 PBM fluorescence, median of replicate spots",–
B5,"599 PBM fluorescence, median of replicate spots",–
B6,"774 PBM fluorescence, median of replicate spots",–
B7,"653 PBM fluorescence, median of replicate spots",–
B8,–,"1410 PBM fluorescence, median of replicate spots"
B9,–,"1350 PBM fluorescence, median of replicate spots"
B10,"849 PBM fluorescence, median of replicate spots",–
B11,"1040 PBM fluorescence, median of replicate spots",–
B12,"844 PBM fluorescence, median of replicate spots",–
B13,–,"1480 PBM fluorescence, median of replicate spots"
B14,–,"1320 PBM fluorescence, median of replicate spots"
B15,–,"1360 PBM fluorescence, median of replicate spots"
B16,–,"1180 PBM fluorescence, median of replicate spots"

Binder,binding signal (ETS1 x2),binding signal (ETS1:RUNX1)
B17,"698 PBM fluorescence, median of replicate spots",–
B18,"950 PBM fluorescence, median of replicate spots",–
B19,"1250 PBM fluorescence, median of replicate spots",–
B20,–,"1340 PBM fluorescence, median of replicate spots"
B21,"1300 PBM fluorescence, median of replicate spots",–
B22,–,"1280 PBM fluorescence, median of replicate spots"
B23,–,"1400 PBM fluorescence, median of replicate spots"
B24,"1230 PBM fluorescence, median of replicate spots",–
B25,"832 PBM fluorescence, median of replicate spots",–
B26,"743 PBM fluorescence, median of replicate spots",–
B27,"806 PBM fluorescence, median of replicate spots",–
B28,"645 PBM fluorescence, median of replicate spots",–
B29,"1100 PBM fluorescence, median of replicate spots",–
B30,–,"1490 PBM fluorescence, median of replicate spots"
B31,"912 PBM fluorescence, median of replicate spots",–
B32,"1350 PBM fluorescence, median of replicate spots",–
